# Key:
# [1] = target: T1, CmlR (Streptomyces venezuelae ATCC 10712) (UniProt F2RB72); experiment: EMSA; conditions: 10 mM Tris pH 7.8, 5 mM MgCl2, 60 mM KCl, 10% glycerol; Lsr2 (EMSA, AFM): room temperature 10 min then ice 30 min; CmlR: 30 C 30 min
# T1 sequence: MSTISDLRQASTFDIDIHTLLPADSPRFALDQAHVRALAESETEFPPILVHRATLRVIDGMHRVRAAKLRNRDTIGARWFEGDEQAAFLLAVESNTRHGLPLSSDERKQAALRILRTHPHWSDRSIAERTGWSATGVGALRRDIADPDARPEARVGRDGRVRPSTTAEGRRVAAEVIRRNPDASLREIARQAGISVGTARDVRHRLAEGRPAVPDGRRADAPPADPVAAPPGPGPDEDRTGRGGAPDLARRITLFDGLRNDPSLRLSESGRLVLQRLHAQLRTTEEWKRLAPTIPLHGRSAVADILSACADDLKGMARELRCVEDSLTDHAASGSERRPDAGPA
# [2] = target: T2, Lsr2 (Streptomyces venezuelae ATCC 10712) (UniProt F2R951); experiment: EMSA; conditions: 10 mM Tris pH 7.8, 5 mM MgCl2, 60 mM KCl, 10% glycerol; Lsr2 (EMSA, AFM): room temperature 10 min then ice 30 min; CmlR: 30 C 30 min
# T2 sequence: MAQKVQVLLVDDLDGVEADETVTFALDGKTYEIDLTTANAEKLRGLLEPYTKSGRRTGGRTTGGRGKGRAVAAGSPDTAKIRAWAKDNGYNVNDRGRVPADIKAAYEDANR
Sequence,binding [1],binding [2]
GGTGGATTCCGTAGTCATGGCGCGGACCTTACAGCGATGATCCACGATCATCCGACCGGCTTGTCTATTTTCAGCCAGTCCGACTCGCACCCGGCTCGAACGAAGCCGTGGCCCGAGCGTCACGGAAAGCGTGACACATGTCAGCGCGGCGCCTTTTTCCCTGTTCCGCCGCAATTCCCCGGCACATGATTACGGCCGGAAGCGAAACACATCACCAGGACGTTGTTTCTCGAATTCTCG (double strand) [sven5133 promoter probe],no binding,–
GGAGACGTTCAGGATCGCGGAACTCTGCTCAGTGGATTTCCGCAGCAGTTTGACCGCTTCCCGGCAGCAGTTCAGCACGGCGAAGAAATTGATGTCGAATATCTTCCGGGAAACCTCGTCCGGGGTCGTCATGAAATGGTTCATCGACGA (double strand) [sven0926 probe],–,binds
GGATTTTCCTGAACGCCGGAGTCGGGTGACCGATAACCGGACACTTTCCGGATTTCGTGTCCGGATTGAGCCCGGTTATACGTCGAATGCCTCAAGT (double strand) [sven0904-0905 probe],–,binds
GGCCCACCCCTTCCTTCACTTCCCTTTGCGGGCTCTTCCCTTTGCGGGCTCGGCCCTTCCCGGGTCCGGCGTCTCGAAGTCTGTGGATATCGGTCGCGGGCCGCAAGGGTGTGCAGATCACCACCCCGTGCAACTGAAGGAACCGGACAGTTGAACAGGGCGGTGAACCGCGCGGACTGAACGACCTTGCGTGGGCCGGGGGCGTATGACATAAAAATCCAGGCGTCGGCCCGGAGCACGACTCGGCCGGCGACGCGATCTGTTCTGTCT (double strand) [sven0924-0925 promoter probe],binds,–
